T1: mouse ICOS-mFc (Chimerigen) (mouse, UniProt Q9WVS0 21-141, limits assumed)
T1 construct: Bought; also called recombinant mouse ICOS protein; mICOS; not shown: mouse Fc of the bought fusion
T1 sequence: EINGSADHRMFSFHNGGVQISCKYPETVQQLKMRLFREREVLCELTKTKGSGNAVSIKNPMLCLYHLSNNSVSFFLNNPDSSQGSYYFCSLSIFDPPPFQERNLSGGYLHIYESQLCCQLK

T2: Biotinylated human ICOS protein (human, UniProt Q9Y6W8 21-140, limits assumed, biotinylated (sites not given))
T2 construct: Captured on the NLC chip in the avidity SPR
T2 sequence: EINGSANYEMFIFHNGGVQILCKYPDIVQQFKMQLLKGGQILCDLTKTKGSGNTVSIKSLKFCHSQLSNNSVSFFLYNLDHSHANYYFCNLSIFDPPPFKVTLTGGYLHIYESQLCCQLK

B1: STIM003 (antibody, human IgG1, kappa)
heavy: not shown
light: EIVLTQSPGTLSLSPGERATLSCRASQSVSRSYLAWYQQKRGQAPRLLIYGASSRATGIPDRFSGDGSGTDFTLSISRLEPEDFAVYYCHQYDMSPFTFGPGTKVDIKRTVAAPSVFIFPPSDEQLKSGTASVVCLLNNFYPREAKVQWKVDNALQSGNSQESVTEQDSKDSTYSLSSTLTLSKADYEKHKVYACEVTHQGLSSPVTKSFNRGEC
notes: Anti-ICOS monospecific antibody, tested as human IgG1; also called STIM003 monoclonal IgG1 antibody
B2: STIM001 (antibody, human IgG1, kappa)
heavy: not shown
light: DIVMTQSPLSLPVTPGEPASISCRSSQSLLHSNEYNYLDWYLQKPGQSPQLLIFLGSNRASGVPDRFSGSGSGTDFTLKITRVEAEDVGIYYCMQSLQTPLTFGGGTKVEIKRTVAAPSVFIFPPSDEQLKSGTASVVCLLNNFYPREAKVQWKVDNALQSGNSQESVTEQDSKDSTYSLSSTLTLSKADYEKHKVYACEVTHQGLSSPVTKSFNRGEC
notes: Anti-ICOS monospecific antibody, tested as human IgG1; also called STIM001 monoclonal IgG1 antibody

What was measured:
[1] = molecular target: T1, mouse ICOS-mFc (Chimerigen); test: HTRF, mouse ICOS-mFc, competitor mouse B7-H2-Alexa 647, mean as told in the text (table prints 0.37)
[2] = molecular target: T2, Biotinylated human ICOS protein; test: SPR ProteOn avidity format, biotinylated human ICOS on NLC chip, antibody analyte; apparent KD from equilibrium, 25 C
Experimental: Biotinylated human ICOS protein diluted at 7.5 μg/mL in running buffer (1× HBS-EP+ Buffer Technova, cat. No. H8022) was captured on a NLC sensor chip (Bio-Rad, cat No 1765021). The surface was then blocked using biocytin (Sigma Aldrich, cat No B1758) at 1 mg/mL.
The assay was carried out at 25° C.
The buffer injection (i.e. 0 nM) was used to double reference the sensorgrams. The analysis was carried out using the equilibrium model inherent to the ProteOn's analysis software for each mAb² construct.

| Binder | IC50 [1] [nM] | Kd [2] [nM] |
| --- | --- | --- |
| B1 | 0.12 |  |
| B2 |  | 57.1 |
